Experimental data from PMC7305236 (Nature Communications, 2020).
No end group written: not given here.

B1: Dynorphin B (peptide)
peptide: YGGFLRRQFKVVT
B2: Dynorphin A (peptide)
peptide: YGGFLRRIRPKLKWDNQ
B3: Adrenorphin (peptide)
peptide: YGGFMRRV-NH2
B4: LIH383-Cy5 (peptide)
peptide: FGGFMRRK(Cy5)
B5: Nociceptin (peptide)
peptide: FGGFTGARKSARKLANQ
B6: Nociceptin 1-13-NH2 (peptide)
peptide: FGGFTGARKSARK-NH2
B7: Dynorphin A 2-17 (peptide)
peptide: GGFLRRIRPKLKWDNQ
B8: Endomorphin-1 (peptide)
chain: YPWF-NH2
B9: [Phe1Ψ(CH2-NH)-gly2]nociceptin-(1-13)-NH2 (peptide)
peptide: FGGFTGARKSARK-NH2
modifications: also: ψ(CH2-NH) bond between Phe1 and Gly2
B10: Dynorphin A 2-13-NH2 (peptide)
peptide: GGFLRRIRPKLK-NH2
B11: LIH383 (designed binder)
peptide: FGGFMRRK-NH2
B12: BAM22 (peptide)
peptide: YGGFMRRVGRPEWWMDYQKRYG
B13: LIH383 (peptide)
peptide: FGGFMRRK-NH2

What was measured:
[1] = target: T1, atypical chemokine receptor ACKR3 (formerly CXCR7) (human, UniProt P25106 1-362); assay: cell-based or functional assay
T1 sequence (P25106 whole entry): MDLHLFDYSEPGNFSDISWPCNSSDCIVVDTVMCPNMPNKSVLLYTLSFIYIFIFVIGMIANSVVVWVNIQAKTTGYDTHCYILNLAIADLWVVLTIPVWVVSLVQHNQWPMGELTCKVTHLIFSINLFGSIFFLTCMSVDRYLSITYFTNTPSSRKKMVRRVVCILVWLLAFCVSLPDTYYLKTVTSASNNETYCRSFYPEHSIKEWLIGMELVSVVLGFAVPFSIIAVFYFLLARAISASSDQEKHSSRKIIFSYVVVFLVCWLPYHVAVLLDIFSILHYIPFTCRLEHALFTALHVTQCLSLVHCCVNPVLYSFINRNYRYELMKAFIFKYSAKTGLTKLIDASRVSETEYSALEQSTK

[2] = target: T1, atypical chemokine receptor ACKR3 …; assay: flow cytometry on cells
[3] = target: T1, atypical chemokine receptor ACKR3 …; assay: cell-based or functional assay; remark: listed apart in the source
[4] = target: kappa opioid receptor (KOR) (human, UniProt P41145 1-380); assay: cell-based or functional assay
Chain of kappa opioid receptor (KOR) (P41145 whole entry): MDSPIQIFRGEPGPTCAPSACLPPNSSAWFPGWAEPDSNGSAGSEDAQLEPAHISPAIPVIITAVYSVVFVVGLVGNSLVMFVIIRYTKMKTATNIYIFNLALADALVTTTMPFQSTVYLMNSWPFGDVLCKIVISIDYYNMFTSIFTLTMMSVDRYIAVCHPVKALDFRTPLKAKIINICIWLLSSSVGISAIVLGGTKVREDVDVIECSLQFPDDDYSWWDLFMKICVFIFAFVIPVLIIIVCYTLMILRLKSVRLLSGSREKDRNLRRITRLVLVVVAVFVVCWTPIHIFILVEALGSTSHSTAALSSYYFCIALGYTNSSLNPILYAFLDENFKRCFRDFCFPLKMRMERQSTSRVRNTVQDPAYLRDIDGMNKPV

mu opioid receptor (MOR) = mu opioid receptor (MOR) (human, UniProt P35372 1-400); assay: cell-based or functional assay
Chain of mu opioid receptor (MOR) (P35372 whole entry): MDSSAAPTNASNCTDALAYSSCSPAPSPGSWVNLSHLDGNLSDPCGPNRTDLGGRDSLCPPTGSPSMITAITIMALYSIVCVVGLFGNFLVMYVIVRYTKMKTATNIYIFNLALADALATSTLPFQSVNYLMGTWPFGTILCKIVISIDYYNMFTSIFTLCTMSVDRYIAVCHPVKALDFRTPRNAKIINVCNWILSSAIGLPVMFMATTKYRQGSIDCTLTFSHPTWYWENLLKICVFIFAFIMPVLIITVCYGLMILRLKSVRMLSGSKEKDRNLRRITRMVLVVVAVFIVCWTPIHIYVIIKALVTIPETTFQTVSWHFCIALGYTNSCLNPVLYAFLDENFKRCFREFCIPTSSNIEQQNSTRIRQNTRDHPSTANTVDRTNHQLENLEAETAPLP

[5] = target: delta opioid receptor (DOR) (human, UniProt P41143 1-372); assay: cell-based or functional assay
Chain of delta opioid receptor (DOR) (P41143 whole entry, stated change not applied): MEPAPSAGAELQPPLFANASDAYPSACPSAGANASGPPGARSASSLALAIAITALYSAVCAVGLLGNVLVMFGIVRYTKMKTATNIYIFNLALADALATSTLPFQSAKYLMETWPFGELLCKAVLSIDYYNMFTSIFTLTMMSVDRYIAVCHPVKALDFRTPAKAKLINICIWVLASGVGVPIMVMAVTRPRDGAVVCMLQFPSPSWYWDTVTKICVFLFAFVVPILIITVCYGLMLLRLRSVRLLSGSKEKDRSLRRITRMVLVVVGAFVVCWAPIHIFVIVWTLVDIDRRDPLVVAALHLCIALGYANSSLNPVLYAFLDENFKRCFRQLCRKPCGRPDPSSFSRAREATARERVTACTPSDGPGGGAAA

[6] = target: T1, atypical chemokine receptor ACKR3 …; assay: flow cytometry on cells; remark: listed apart in the source
[7] = target: ACKR3 C-terminally tagged with SmBiT (human, UniProt P25106 1-362); assay: cell-based or functional assay
Chain of ACKR3 C-terminally tagged with SmBiT (P25106 whole entry): as the sequence (P25106 whole entry) above

mouse ACKR3 = mouse ACKR3 (mouse, UniProt P56485 1-362); assay: cell-based or functional assay
Chain of mouse ACKR3 (P56485 whole entry): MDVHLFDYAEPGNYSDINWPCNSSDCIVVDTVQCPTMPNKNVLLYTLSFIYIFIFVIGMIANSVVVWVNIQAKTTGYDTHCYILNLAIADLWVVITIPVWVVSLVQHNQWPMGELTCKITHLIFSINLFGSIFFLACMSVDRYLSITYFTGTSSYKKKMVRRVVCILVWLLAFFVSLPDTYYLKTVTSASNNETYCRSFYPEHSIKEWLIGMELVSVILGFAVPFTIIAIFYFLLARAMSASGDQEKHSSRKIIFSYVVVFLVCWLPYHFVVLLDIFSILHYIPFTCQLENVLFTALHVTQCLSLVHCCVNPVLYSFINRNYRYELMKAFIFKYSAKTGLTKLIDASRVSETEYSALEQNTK

Row | Binder | Supplementary Table 9: EC50 of β-arrestin-1 recruitment to ACKR3, CHO cells [1] [nM] | Supplementary Table 9: EC50 of β-arrestin-1 recruitment to ACKR3, HEK cells [1] [nM] | Supplementary Table 9: EC50 of β-arrestin-2 recruitment to ACKR3, U87 cells [1] [nM] | IC50 [2] [nM] | further results
1 | B1 | ~1000 | 673 | 908 | ~1000 | 
2 | B2 |  | 110 | 97.6 | 85.3 | 
3 | B3 | 22.5 | 72.6 | 81.5 | 41.2 | Supplementary Table 4: EC50 of β-arrestin-1 recruitment to ACKR3, U87 cells [3]: 109 nM; Supplementary Table 4: EC50 of β-arrestin-1 recruitment to KOR, U87 cells [4]: 65.6 nM; Supplementary Table 4: EC50 of β-arrestin-1 recruitment to MOR, U87 cells (mu opioid receptor (MOR)): 101 nM; Supplementary Table 4: EC50 of β-arrestin-1 recruitment to DOR, U87 cells [5]: 323 nM
4 | B4 |  |  |  |  | EC50 [6]: 6.65 nM
5 | B5 | ~10000 |  | > 10000 |  | 
6 | B6 | ~10000 | ~10000 | ~10000 | > 10000 | 
7 | B7 |  |  |  | ~10000 | 
8 | B8 |  |  |  | > 10000 | 
9 | B9 | ~5000 | 3760 | 4340 | > 10000 | 
10 | B10 |  |  |  | > 10000 | 
11 | B11 |  |  |  |  | β-arrestin-1 recruitment (NanoBiT, U87 cells): EC50 [7]: 0.61 nM
12 | B12 | 12.5 | 23.2 | 22.9 | 31.3 | 
13 | B13 |  |  |  | 4 | Supplementary Table 6: EC50 of β-arrestin-1 recruitment to mACKR3, U87 cells (mouse ACKR3): 2.31 nM
